T1: methylamine dehydrogenase (MADH) (Paracoccus denitrificans, UniProt P22619)
T1 chain 1: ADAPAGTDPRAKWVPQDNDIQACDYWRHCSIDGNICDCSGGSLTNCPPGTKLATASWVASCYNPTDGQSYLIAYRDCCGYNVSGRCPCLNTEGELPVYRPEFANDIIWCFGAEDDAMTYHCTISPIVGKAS
T1 chain 2: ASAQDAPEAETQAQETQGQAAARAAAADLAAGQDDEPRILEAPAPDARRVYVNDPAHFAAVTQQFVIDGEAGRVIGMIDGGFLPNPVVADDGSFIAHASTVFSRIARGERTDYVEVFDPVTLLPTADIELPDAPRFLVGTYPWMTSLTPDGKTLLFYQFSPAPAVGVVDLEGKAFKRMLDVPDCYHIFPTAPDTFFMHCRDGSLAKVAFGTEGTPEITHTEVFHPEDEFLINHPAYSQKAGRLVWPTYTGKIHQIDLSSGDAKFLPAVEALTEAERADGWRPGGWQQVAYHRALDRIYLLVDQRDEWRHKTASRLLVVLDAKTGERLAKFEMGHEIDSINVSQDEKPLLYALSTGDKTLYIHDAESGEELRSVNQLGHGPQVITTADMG


Assays:
[1] = target: methylamine dehydrogenase (MADH) (Paracoccus denitrificans) (UniProt P22619); conditions: cited from earlier work
[2] = target: T1, methylamine dehydrogenase (MADH); assay: steady-state kinetics competitive inhibition

Chain of amicyanin (P22364 27-131): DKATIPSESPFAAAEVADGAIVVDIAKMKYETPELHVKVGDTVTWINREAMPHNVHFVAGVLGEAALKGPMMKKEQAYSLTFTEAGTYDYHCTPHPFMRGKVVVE

Ki [2] | Molecule | Kd [1]
– | amicyanin (from UniProt P22364) | 5 µM
7.2 µM | M98K amicyanin (protein) DKATIPSESPFAAAEVADGAIVVDIAKMKYETPELHVKVGDTVTWINREAMPHNVHFVAGVLGEAALKGPMKKKEQAYSLTFTEAGTYDYHCTPHPFMRGKVVVE | –
